Test results as given in patent US20250339531A1, “DUX4 POLYPEPTIDES AND NUCLEIC ACIDS FOR TREATING INFLAMMATORY AND AUTOIMMUNE CONDITIONS” (Fred Hutchinson Cancer Center, priority 2021, published 2025).

Target: Myosin-9 (Homo sapiens) (UniProt P35579)
Test: anti-FLAG co-IP LC-MS, exp 3, +IFNg +Dox

Chain of Myosin-9 (Homo sapiens) (P35579 2-1960 limits assumed): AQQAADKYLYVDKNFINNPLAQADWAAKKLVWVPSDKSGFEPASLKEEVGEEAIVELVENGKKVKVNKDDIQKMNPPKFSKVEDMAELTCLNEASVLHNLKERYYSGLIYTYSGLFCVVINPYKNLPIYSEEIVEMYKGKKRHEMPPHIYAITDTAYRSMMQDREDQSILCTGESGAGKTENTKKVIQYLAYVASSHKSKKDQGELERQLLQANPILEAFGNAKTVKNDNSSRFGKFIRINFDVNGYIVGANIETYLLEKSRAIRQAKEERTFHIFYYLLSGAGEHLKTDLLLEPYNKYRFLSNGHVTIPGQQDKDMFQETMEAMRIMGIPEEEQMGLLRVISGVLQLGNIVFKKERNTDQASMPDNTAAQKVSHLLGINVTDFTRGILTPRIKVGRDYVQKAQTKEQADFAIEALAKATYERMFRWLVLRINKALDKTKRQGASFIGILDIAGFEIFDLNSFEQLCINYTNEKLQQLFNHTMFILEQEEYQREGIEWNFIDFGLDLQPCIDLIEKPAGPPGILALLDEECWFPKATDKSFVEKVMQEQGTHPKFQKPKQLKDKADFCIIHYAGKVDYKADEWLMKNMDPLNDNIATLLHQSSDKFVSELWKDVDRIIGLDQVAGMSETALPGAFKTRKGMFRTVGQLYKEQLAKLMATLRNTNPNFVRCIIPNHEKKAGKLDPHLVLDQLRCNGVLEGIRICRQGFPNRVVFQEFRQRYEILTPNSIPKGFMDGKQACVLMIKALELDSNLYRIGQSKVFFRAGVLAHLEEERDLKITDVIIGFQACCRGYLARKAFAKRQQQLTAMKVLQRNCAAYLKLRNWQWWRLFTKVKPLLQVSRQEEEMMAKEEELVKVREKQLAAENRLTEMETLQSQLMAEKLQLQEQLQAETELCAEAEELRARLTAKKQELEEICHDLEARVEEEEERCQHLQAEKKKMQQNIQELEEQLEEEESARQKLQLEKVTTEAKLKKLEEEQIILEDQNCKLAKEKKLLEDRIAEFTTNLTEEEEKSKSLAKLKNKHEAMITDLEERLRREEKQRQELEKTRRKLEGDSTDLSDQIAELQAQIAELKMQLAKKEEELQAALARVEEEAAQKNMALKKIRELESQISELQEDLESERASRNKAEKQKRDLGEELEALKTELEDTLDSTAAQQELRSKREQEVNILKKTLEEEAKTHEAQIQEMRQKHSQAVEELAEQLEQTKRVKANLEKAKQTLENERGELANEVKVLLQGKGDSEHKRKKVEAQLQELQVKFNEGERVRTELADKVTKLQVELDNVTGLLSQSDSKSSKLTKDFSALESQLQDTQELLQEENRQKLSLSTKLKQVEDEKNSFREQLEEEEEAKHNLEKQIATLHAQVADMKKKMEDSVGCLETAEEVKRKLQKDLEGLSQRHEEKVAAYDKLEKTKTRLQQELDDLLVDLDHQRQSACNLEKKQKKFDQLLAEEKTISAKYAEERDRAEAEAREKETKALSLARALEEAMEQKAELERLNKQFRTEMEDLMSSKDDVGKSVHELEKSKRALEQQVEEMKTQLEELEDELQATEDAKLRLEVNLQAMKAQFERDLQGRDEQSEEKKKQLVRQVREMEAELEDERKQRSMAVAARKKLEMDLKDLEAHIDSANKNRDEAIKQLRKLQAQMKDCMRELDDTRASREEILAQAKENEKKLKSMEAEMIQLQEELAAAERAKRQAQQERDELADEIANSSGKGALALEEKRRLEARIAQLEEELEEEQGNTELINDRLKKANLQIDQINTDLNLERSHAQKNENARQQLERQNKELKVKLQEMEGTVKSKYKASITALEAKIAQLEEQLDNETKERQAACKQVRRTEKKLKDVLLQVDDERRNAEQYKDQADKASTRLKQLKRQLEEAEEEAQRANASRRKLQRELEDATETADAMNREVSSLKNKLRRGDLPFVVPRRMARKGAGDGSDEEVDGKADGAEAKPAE

i3XFLAG-NLS-CTDaa154-424
PSMs: 242 PSMs
